Values quoted from earlier work in paper PMC12406711.

Target: PCDH10 ECD (Homo sapiens) (UniProt Q9P2E7)

PCDH10 ECD (from UniProt Q9P2E7)
Kd: 3.6 µM
